Source: patent publication US20200317768A1 (published 2020)
Residue numbers refer to the chain shown, from its start.

Legend:
mature myostatin = target: T1, mature myostatin (human (mature form 100% identical in …, UniProt O08689 268-376 (mouse entry))); experiment: ELISA, biotinylated antigen (4 nM) on streptavidin plate, anti-human IgG-HRP
T1 construct: Disulfide-bonded homodimer purified from latent myostatin; Biotinylated in the ELISA; also called human myostatin mature form; active myostatin
T1 sequence: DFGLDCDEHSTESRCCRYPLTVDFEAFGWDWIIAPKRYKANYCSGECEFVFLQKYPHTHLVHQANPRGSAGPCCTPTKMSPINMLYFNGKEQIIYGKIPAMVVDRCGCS
Method: Uncoated ELISA plates (NUNC-IMMUNO plate MAXISORP surface, Nalge Nunc International) were coated with 20 μL of 50 nM streptavidin (GenScript) for 1 hour at room temperature. Plates were then washed with PBST three times and blocked with 50 μL 20% Blocking One (Nacalai Tesque) overnight. On the next day, each well of each plate was incubated with biotinylated mature myostatin, human or mouse biotinylated latent myostatin, or biotinylated recombinant mouse myostatin propeptide-Fc chimera protein (R&D Systems) at 4 nM/well/20 μL for 2 hours. After washing, 20 μL of antibody sample was added to the wells and the plates were left for 1 hour. The plates were washed and 20 μL of anti-human IgG-horseradish peroxidase (HRP) (Abcam) diluted in HEPES-buffered saline was added, and the plates were left for another hour. The plates were then washed again, and then 50 μL ABTS (KPL) was added to each well, and the plates were incubated for 1 hour.

[1] = target: T2, Human GDF11 with Flag-tag on N-terminus (human, UniProt O95390 11-407); experiment: ELISA, biotinylated human latent GDF11 (20 nM) on streptavidin plate, anti-human IgG-HRP
T2 construct: Whole entry as named; Biotinylated in the ELISA; also called Flag-hGDF11; human latent GDF11
T2 sequence: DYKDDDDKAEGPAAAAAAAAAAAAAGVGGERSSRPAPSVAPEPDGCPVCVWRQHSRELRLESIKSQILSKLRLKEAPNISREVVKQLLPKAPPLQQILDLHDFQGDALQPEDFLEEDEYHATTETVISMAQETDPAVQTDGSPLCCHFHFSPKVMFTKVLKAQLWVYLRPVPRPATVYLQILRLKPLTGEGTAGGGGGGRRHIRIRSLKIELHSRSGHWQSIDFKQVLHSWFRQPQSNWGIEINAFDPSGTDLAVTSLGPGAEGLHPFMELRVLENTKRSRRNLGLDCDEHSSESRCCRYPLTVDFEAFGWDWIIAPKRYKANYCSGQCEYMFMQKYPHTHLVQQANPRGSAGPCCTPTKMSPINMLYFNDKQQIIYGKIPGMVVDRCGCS
Method: Uncoated ELISA plates (NUNC-IMMUNO plate MAXISORP™ surface, Nalge Nunc International) were coated with 20 μL of 50 nM streptavidin (GenScript) for 2 hour at room temperature. Plates were then washed with PBST three times and blocked with 50 μL 20% Blocking One (Nacalai Tesque) for overnight. On the next day, each well of the plates was incubated with biotinylated human latent myostatin at 2 nM/well/20 μL or biotinylated human latent GDF11 at 20 nM/well/20 μL for 2 hours. After washing, 20 μL of antibody sample was added to the wells and the plates were left for 1 hour. The plates were washed and 20 μL of anti-human IgG-horseradish peroxidase (HRP) (Abcam) diluted in HEPES-buffered saline was added, and the plates were left for another hour. The wells were washed again, and then 50 μL ABTS (KPL) was added to each well, and the plates were incubated for 1 hour.

Human latent myostatin [2] = target: T3, Human latent myostatin (human, UniProt O14793 25-266; O14793 267-375); experiment: SPR (BIACORE T200), antibody captured by ProA/G, latent myostatin as analyte, 37 C, pH7.4, 1:1 fit
T3 construct: Biotinylated in the ELISAs; also called human myostatin latent form
T3 sequence 1: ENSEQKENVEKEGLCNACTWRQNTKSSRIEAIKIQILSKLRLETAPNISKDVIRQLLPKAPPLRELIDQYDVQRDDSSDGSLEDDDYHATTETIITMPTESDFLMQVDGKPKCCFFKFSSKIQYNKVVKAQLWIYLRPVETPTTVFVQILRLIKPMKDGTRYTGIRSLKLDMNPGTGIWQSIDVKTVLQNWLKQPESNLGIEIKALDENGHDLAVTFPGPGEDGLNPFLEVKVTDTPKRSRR
T3 sequence 2: T1 sequence
Method: (§1) The kinetic parameters of anti-latent myostatin antibodies against human, cynomolgus monkey (cyno), and mouse latent myostatin were assessed at 37° C. at pH7.4 using a BIACORE® T200 instrument (GE Healthcare). ProA/G (Pierce) was immobilized onto all flow cells of a CM4 chip using amine coupling kit (GE Healthcare). Anti-latent myostatin antibody and analytes were prepared in ACES pH7.4 (20 mM ACES, 150 mM NaCl, 1.2 mM CaCl₂), 0.05% TWEEN® 20, 0.005% NaN₃). […] Then human, cyno, or mouse latent myostatin was injected at 3.125 to 50 nM prepared by two-fold serial dilution, followed by dissociation. The sensor surface was regenerated with 25 mM NaOH. Kinetic parameters were determined by processing and fitting the data to a 1:1 binding model using BIACORE® T200 Evaluation software, version 2.0 (GE Healthcare).

[3] = target: T4, Cynomolgus monkey latent myostatin (cynomolgus monkey, UniProt Q95J86 25-266; Q95J86 267-375); experiment: as above
T4 construct: signal 1-24; also called Cyno latent myostatin
T4 sequence 1: T3 sequence 1 with V52A
T4 sequence 2: T1 sequence
Method: as §1

Mouse latent myostatin = target: T5, Mouse latent myostatin (mouse, UniProt O08689 26-267; O08689 268-376); experiment: as above
T5 construct: signal 1-24
T5 sequence 1: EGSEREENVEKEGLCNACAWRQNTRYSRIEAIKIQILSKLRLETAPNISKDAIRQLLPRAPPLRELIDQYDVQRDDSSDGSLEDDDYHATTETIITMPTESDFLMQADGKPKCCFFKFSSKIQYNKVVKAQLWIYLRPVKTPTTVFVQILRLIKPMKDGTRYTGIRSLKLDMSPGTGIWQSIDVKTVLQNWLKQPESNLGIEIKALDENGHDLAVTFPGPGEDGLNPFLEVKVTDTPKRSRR
T5 sequence 2: T1 sequence
Method: as §1

Human latent myostatin [4] = target: T3, Human latent myostatin; experiment: SPR (BIACORE) as in Example 7; antigen not given, values equal those for human latent myostatin in Table 3
Method: as §1
Humanized antibodies were transiently expressed in FS293-F cells, and HEK Blue Assay and BIACORE® analysis were carried out as described above.

B1: MS_MST1032Ha-G1m/MST1032La-k0MC (antibody, human IgG1, kappa, V domains shown)
VH: QSLEESGGRLVTPGGSLTVTCRVSGIDLSSYDISWVRQAPGKGLEWIGIISYAGSTYYASWAKGRFTISKTSTTVDLKMTSLTTEDTATYFCARGVPAYSTGGDLWGPGTLVTVSS
VL: AQVLTQTASSVSAAVGGTVTINCQSSQSVYDNNWLSWFQQKPGQPPKLLIYWASTLASGVPSRFKGSGSGTQFTLTISDLECDDAATYYCAGGYGGGLYAFGGGTKVEIKR
notes: Chimeric antibody: rabbit variable regions, human G1m / k0MC constant regions; also called MST1032-G1m
Q: Does B1 bind (mature myostatin)?
A: no binding

Q: Does B1 bind [1]?
A: no binding

Q: And the Kd (Human latent myostatin [2])?
A: 0.0766 nM

Q: What about the koff (Human latent myostatin [2]) of the same binder?
A: 8.65e-05 s⁻¹

Q: What about the kon (Human latent myostatin [2]) of the same binder?
A: 1.13e+06 M⁻¹ s⁻¹

Q: What about the Kd [3] of the same binder?
A: 0.0717 nM

Q: And the koff [3]?
A: 7.79e-05 s⁻¹

Q: What about the kon [3] of the same binder?
A: 1.09e+06 M⁻¹ s⁻¹

Q: And the Kd (Mouse latent myostatin)?
A: 0.0579 nM

Q: What about the koff (Mouse latent myostatin) of the same binder?
A: 8.16e-05 s⁻¹

Q: And the kon (Mouse latent myostatin)?
A: 1.41e+06 M⁻¹ s⁻¹

Q: What about the Kd (Human latent myostatin [4]) of the same binder?
A: 0.0766 nM

Q: And the koff (Human latent myostatin [4])?
A: 8.65e-05 s⁻¹

Q: And the kon (Human latent myostatin [4])?
A: 1.13e+06 M⁻¹ s⁻¹
